Data reported in patent US20260209365A1, “ANTI-COMMON GAMMA CHAIN PROTEINS AND COMPOSITIONS OF MATTER” (SINOMAB BIOSCIENCE LIMITED, priority 2023, published 2026).
Numbering of substitutions follows the chain as printed.

Target: T1, human γc on cells (KHYG-1, Ramos, HPB-ALL, Jurkat, PBMC) (human) (UniProt P31785)
T1 sequence (looked up): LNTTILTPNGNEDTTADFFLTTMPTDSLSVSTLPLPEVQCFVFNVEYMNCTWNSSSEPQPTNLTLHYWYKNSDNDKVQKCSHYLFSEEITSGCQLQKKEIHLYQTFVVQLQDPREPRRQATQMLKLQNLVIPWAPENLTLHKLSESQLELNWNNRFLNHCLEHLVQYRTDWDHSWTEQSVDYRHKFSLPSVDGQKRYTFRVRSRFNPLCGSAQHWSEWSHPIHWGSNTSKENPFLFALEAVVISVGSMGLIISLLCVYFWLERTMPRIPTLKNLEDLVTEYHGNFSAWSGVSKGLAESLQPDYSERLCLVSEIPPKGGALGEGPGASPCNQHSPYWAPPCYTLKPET
Assay: cell-based or functional assay

B1: SM-05A anti-γc ScFv (scFv, part only; not given: linker and E-tag, not shown: small tags and cut ends)
scFv (part 1 of 2), part: EVQLQQSGPELVKPGASVKISCKTSGYTFTEYTMHWVKQSHGKSLEWIGGIDPYNGGATYNQRFKGKATLTVDKSSSTAYMEFRSLTSEDSAVYYCARRRLYYGNALDYWGQGTSVTVSS
scFv (part 2 of 2), part: DVLMTQTPLSLPVSLGDQASISCRSSQSLVHSNGNTYLHWYLQRPGQSPKLLIYKVSSRFSGVPDRFSGSGSGTDFTLKISRVEAEDLGVYFCSQTTHVPFTFGSGTKLEIKR
Binder B1 has a p-STAT3 inhibition (%), IL-9 induced, Jurkat T cells, flow cytometry of 80.6%, a p-STAT3 inhibition (%), IL-21 induced, Ramos B cells, flow cytometry of 47.3% and a p-STAT5 inhibition (%), IL-7 induced, HPB-ALL T cells, flow cytometry of 100%. The p-STAT5 inhibition (%), IL-15 induced, KHYG-1 NK cells, flow cytometry was 48.6% and the p-STAT6 inhibition (%), IL-4 induced, Ramos B cells, flow cytometry was 86.1%.

B2: SM-05B anti-γc ScFv (scFv, part only; not given: linker and E-tag, not shown: small tags and cut ends)
scFv (part 1 of 2), part: B1 scFv (part 1 of 2), part with E1Q, S21F, K43E, Y54N, N55T, R63K, V72A, F83L, L101R, N105Y
scFv (part 2 of 2), part: B1 scFv (part 2 of 2), part with L29I, H39E, R44K, S58N, T96S, F101W, S105G
B2 gave a p-STAT3 inhibition (%), IL-9 induced, Jurkat T cells, flow cytometry of 82.6%, a p-STAT3 inhibition (%), IL-21 induced, Ramos B cells, flow cytometry of 13.8% and a p-STAT5 inhibition (%), IL-7 induced, HPB-ALL T cells, flow cytometry of 94.5%. It also gave a p-STAT5 inhibition (%), IL-15 induced, KHYG-1 NK cells, flow cytometry of 47.1% and a p-STAT6 inhibition (%), IL-4 induced, Ramos B cells, flow cytometry of 77%.

B3: SM-05F anti-γc ScFv (scFv, part only; not given: linker and E-tag, not shown: small tags and cut ends)
scFv (part 1 of 2), part: B1 scFv (part 1 of 2), part with S21F, K43E, Y54N, N55T, A58V, R63K, V72A, F83L, L101R, N105Y
scFv (part 2 of 2), part: DVLMTQTPLSLPVSLGDQASISCRSSQSIVHNNGNTYLEWYLQKPGQSPKLLIYKVSNRFFGVPDRFSGSGSGTYFTLKISRVEAEDLGVYYCFQGSHVPWTFGGGTKLEIKR
B3 was tested, and the p-STAT3 inhibition (%), IL-9 induced, Jurkat T cells, flow cytometry was 92.4%, the p-STAT3 inhibition (%), IL-21 induced, Ramos B cells, flow cytometry was 79% and the p-STAT5 inhibition (%), IL-7 induced, HPB-ALL T cells, flow cytometry was 99.4%. For the same binder, the p-STAT5 inhibition (%), IL-15 induced, KHYG-1 NK cells, flow cytometry was 43.7% and the p-STAT6 inhibition (%), IL-4 induced, Ramos B cells, flow cytometry was 46%.

B4: SM-05C anti-γc ScFv (scFv, part only; not given: linker and E-tag, not shown: small tags and cut ends)
scFv (part 1 of 2), part: QVQLQQSGPELVKPGASVKIFCKTSGYTFTEYTMHWVKQSHGESLEWIGGIDPNTGGATYNQKFKGKATLTADKSSSTAYMELRSLTSEDSAVYYCARRRRYYGYAMDYWGQGTSVTVSS
scFv (part 2 of 2), part: B1 scFv (part 2 of 2), part with L3V, R44K, S58N, V90I, F92Y, S94F, T96D, T97S
B4 showed a p-STAT3 inhibition (%), IL-9 induced, Jurkat T cells, flow cytometry of 97.9%, a p-STAT3 inhibition (%), IL-21 induced, Ramos B cells, flow cytometry of 29.1% and a p-STAT5 inhibition (%), IL-7 induced, HPB-ALL T cells, flow cytometry of 100%. It also gave a p-STAT5 inhibition (%), IL-15 induced, KHYG-1 NK cells, flow cytometry of 46% and a p-STAT6 inhibition (%), IL-4 induced, Ramos B cells, flow cytometry of 46%.

B5: SM-05E anti-γc ScFv (scFv, part only; not given: linker and E-tag, not shown: small tags and cut ends)
scFv (part 1 of 2), part: B4 scFv (part 1 of 2), part with Q1E, Q3H, A58V, M107L
scFv (part 2 of 2), part: B1 scFv (part 2 of 2), part with L29I, H39E, R44K, S58N, R82S, T96S, T102M
B5 was tested, and the p-STAT3 inhibition (%), IL-9 induced, Jurkat T cells, flow cytometry was 74.3%, the p-STAT3 inhibition (%), IL-21 induced, Ramos B cells, flow cytometry was 60.6% and the p-STAT5 inhibition (%), IL-7 induced, HPB-ALL T cells, flow cytometry was 98.3%. For the same binder, the p-STAT5 inhibition (%), IL-15 induced, KHYG-1 NK cells, flow cytometry was 47.8% and the p-STAT6 inhibition (%), IL-4 induced, Ramos B cells, flow cytometry was 85.6%.

B6: SM-05I anti-γc ScFv (scFv, part only; not given: linker and E-tag, not shown: small tags and cut ends)
scFv (part 1 of 2), part: QVQLQQSGAELAKPGASVKLSCKASGYTFTEYTMHWVKQSHGESLDWIGGIDPNTGGATYNQRFKGKATMTVDKSSSTAYMEFRSLTSEDSAVYYCARRRRYYGYALDNWGQGTSVTVSS
scFv (part 2 of 2), part: B3 scFv (part 2 of 2), part with N32S, F61S, Y75D, G96D, W101F, G105S
B6 showed a p-STAT3 inhibition (%), IL-9 induced, Jurkat T cells, flow cytometry of 100%, a p-STAT3 inhibition (%), IL-21 induced, Ramos B cells, flow cytometry of 91% and a p-STAT5 inhibition (%), IL-15 induced, KHYG-1 NK cells, flow cytometry of 38.9%. It also gave a p-STAT6 inhibition (%), IL-4 induced, Ramos B cells, flow cytometry of 74.1%.

B7: SM-05H anti-γc ScFv (scFv, part only; not given: linker and E-tag, not shown: small tags and cut ends)
scFv (part 1 of 2), part: B4 scFv (part 1 of 2), part with V18M, K19N, K67Q, M107L
scFv (part 2 of 2), part: B1 scFv (part 2 of 2), part with S28N, L29I, V30I, H39E, R44K, S58N, S68T, T96S, S105G
For B7, the p-STAT3 inhibition (%), IL-9 induced, Jurkat T cells, flow cytometry was 93.1%, the p-STAT3 inhibition (%), IL-21 induced, Ramos B cells, flow cytometry was 70.6% and the p-STAT5 inhibition (%), IL-7 induced, HPB-ALL T cells, flow cytometry was 100%. It also gave a p-STAT5 inhibition (%), IL-15 induced, KHYG-1 NK cells, flow cytometry of 51.7% and a p-STAT6 inhibition (%), IL-4 induced, Ramos B cells, flow cytometry of 63.4%.
